Source: paper PMC3653948, “PDZ Domain-Mediated Interactions of G Protein-Coupled Receptors with Postsynaptic Density Protein 95: Quantitative Characterization of Interactions” (PLoS ONE, 2013)
Ends that are not written are not given here.

Columns and labels:
Settings in all cases: both partners purified
[1] = target: T1, PSD-95 PDZ1 (aa 61-151) (UniProt P78352 61-151); assay: SPR; PDZ domain immobilised by amine coupling (CM5 for PDZ1 and PDZ2, CM4 for PDZ3), peptides injected; Biacore X100, 25.0°C, HBS-EP+ (10 mM HEPES pH 7.4, 150 mM NaCl, 3 mM EDTA, 0.05% Surfactant P-20); 1 mM DTT for peptides with a cysteine; Kd from steady-state responses, 1:1 model with a linear component
T1 construct: postsynaptic density protein 95 (PSD-95), PDZ1, aa 61-151

[2] = target: T2, PSD-95 PDZ2 (aa 155-249) (UniProt P78352 155-249); assay: as above
T2 construct: postsynaptic density protein 95 (PSD-95), PDZ2, aa 155-249

[3] = target: T3, PSD-95 PDZ3 (aa 309-401) (UniProt P78352 309-401); assay: as above
T3 construct: postsynaptic density protein 95 (PSD-95), PDZ3, aa 309-401

[4] = target: PSD-95 PDZ1 (aa 61–151) (UniProt P78352 61-151); assay: fluorescence polarisation; competition: 25 nM Cy5-labeled probe and a constant concentration of PDZ protein corresponding to the K d of the probe, twofold dilution series of unlabeled peptide (typically 1–512 µM); 10 mM HEPES pH 7.4, 150 mM NaCl, 1% BSA; room temperature; K i calculated from the IC50
[5] = target: T4, PSD-95 PDZ2 (aa 155–249) (UniProt P78352 155-249); assay: as above
T4 construct: postsynaptic density protein 95 (PSD-95), PDZ2, aa 155–249; also called isolated PDZ2

[6] = target: T5, PSD-95 PDZ3 (aa 309–401) (UniProt P78352 309-401); assay: as above
T5 construct: postsynaptic density protein 95 (PSD-95), PDZ3, aa 309–401

[7] = target: T3, PSD-95 PDZ3 (aa 309-401); assay: fluorescence polarisation; competition: 25 nM Cy5-labeled probe (Cy5-KIF1Bα for PDZ1, Cy5-GluN2B for PDZ2, Cy5-CRIPT for PDZ3), constant PDZ protein at the probe's Kd, twofold dilution series of unlabeled peptide (typically 1–512 µM); 10 mM HEPES pH 7.4, 150 mM NaCl, 1% BSA, room temperature; Ki calculated from IC50
[8] = target: T1, PSD-95 PDZ1 (aa 61-151); assay: as above
[9] = target: T2, PSD-95 PDZ2 (aa 155-249); assay: as above

Kd [1] [µM] | Kd [2] [µM] | Kd [3] [µM] | Binder | other results
270 |  |  | YDDRGTCASRISTL (N-terminal linker; YDDR because the C-tail has no Tyr or Trp, by the rule of the methods; somatostatin receptor 1, mouse, 10 C-terminal aa; also called mSSTR1; source: synthetic peptide (Schafer-N)) [SSTR1 C-tail peptide (mouse)] | 
630 | 110 |  | YDDRDGVNEKVSCV (N-terminal linker; YDDR because the C-tail has no Tyr or Trp, by the rule of the methods; 5-hydroxytryptamine receptor 2A, human, 10 C-terminal aa; also called 5-hydroxytryptamine receptor 2A; source: synthetic peptide (Schafer-N)) [5-HTR2A C-tail peptide (human)] | 
 |  | 240 | DDRKSSTMRISYL (N-terminal linker; DDR (Tyr omitted) because the C-tail contains Tyr, by the rule of the methods; somatostatin receptor 3, human, 10 C-terminal aa; source: synthetic peptide (Schafer-N)) [SSTR3 C-tail peptide (human)] | 
 | 2090 |  | YDDRRNCSTNDSLL (N-terminal linker; YDDR because the C-tail has no Tyr or Trp, by the rule of the methods; β2-adrenergic receptor, human, 10 C-terminal aa; source: synthetic peptide (Schafer-N)) [β2AR C-tail peptide (human)] | 
84 | 76 |  | YDDRGTCTSRITTL (N-terminal linker; YDDR because the C-tail has no Tyr or Trp, by the rule of the methods; somatostatin receptor 1, human, 10 C-terminal aa; also called hSSTR1; source: synthetic peptide (Schafer-N)) [SSTR1 C-tail peptide (human)] | 
160 | 62 | 780 | YDDRSVVSERISSV (N-terminal linker; YDDR because the C-tail has no Tyr or Trp, by the rule of the methods; 5-hydroxytryptamine receptor 2C, human, 10 C-terminal aa; source: synthetic peptide (Schafer-N)) [5-HTR2C C-tail peptide (human)] | 
 |  |  | RDYKQSSSTL-OH (not fully specified) [metabotropic glutamate receptor mGlu1(a) C-tail peptide, human] | Ki [4]: 830 µM; Ki [5]: > 1000 µM; Ki [6]: > 1000 µM
 |  |  | KYVSYNNLVI-OH (not fully specified) [metabotropic glutamate receptor mGlu7(a) C-tail peptide, human] | Ki [4]: 610 µM; Ki [5]: > 1000 µM; Ki [6]: > 1000 µM
 |  |  | RNCSTNDSLL-OH (not fully specified) [β2-adrenergic receptor (β2AR) C-tail peptide, human] | Ki [4]: > 1000 µM; Ki [5]: 720 µM; Ki [6]: > 1000 µM
120 | 74 | 2400 | YDDRQDIIDLQTEV (N-terminal linker; YDDR because the C-tail has no Tyr or Trp, by the rule of the methods; BAI1 receptor, human, 10 C-terminal aa; also called BAI1 receptor; source: synthetic peptide (Schafer-N)) [BAI1 C-tail peptide (human)] | 
2.2 | 1.1 |  | YDDRNLKAGRETTV (N-terminal linker (solubility, concentration determination); YDDR because the C-tail has no Tyr or Trp, by the rule of the methods; source: synthetic peptide (Schafer-N)) [KIF1Bα C-tail peptide (human), unlabeled] | Ki [7]: 14 µM; Ki [8]: 7 µM; Ki [9]: 3.8 µM
 | 180 | 400 | YDDRRPGFASESKV (N-terminal linker; YDDR because the C-tail has no Tyr or Trp, by the rule of the methods; β1-adrenergic receptor, human, 10 C-terminal aa; also called β1-adrenergic receptor; source: synthetic peptide (Schafer-N)) [β1AR C-tail peptide (human)] | 
 |  | 1.5 | LDTKNYKQTSV (No YDDR/DDR linker is told for this peptide) [CRIPT C-tail peptide (human), unlabeled] | Ki [7]: 2.9 µM
 | 1.4 |  | YEKLSSIESDV (No YDDR/DDR linker is told for this peptide; also called NR2B) [GluN2B C-tail peptide (human), unlabeled] | Ki [7]: > 1000 µM; Ki [8]: 29 µM; Ki [9]: 5.5 µM
